Assay [1] has as its target T1, cyno FGFR2b on cells (cyno, UniProt A0A2K5TL97 22-821). In words: flow cytometry, Expi293 cells overexpressing cyno FGFR2b.
For assay [2], the target named is T2, cyno FGFR2b protein (recombinant) (cyno, UniProt A0A2K5TL97 22-380). In words: SPR, antibody captured by anti-human Fc, cyno FGFR2b.
Assay [3] concerns the target T2, cyno FGFR2b protein (recombinant). In words: ELISA, plate-coated cyno FGFR2b.
The target of assay [4] is T1, cyno FGFR2b on cells. In words: flow cytometry, cyno FGFR2b OE cells.

T1 sequence (A0A2K5TL97 entry or part of it): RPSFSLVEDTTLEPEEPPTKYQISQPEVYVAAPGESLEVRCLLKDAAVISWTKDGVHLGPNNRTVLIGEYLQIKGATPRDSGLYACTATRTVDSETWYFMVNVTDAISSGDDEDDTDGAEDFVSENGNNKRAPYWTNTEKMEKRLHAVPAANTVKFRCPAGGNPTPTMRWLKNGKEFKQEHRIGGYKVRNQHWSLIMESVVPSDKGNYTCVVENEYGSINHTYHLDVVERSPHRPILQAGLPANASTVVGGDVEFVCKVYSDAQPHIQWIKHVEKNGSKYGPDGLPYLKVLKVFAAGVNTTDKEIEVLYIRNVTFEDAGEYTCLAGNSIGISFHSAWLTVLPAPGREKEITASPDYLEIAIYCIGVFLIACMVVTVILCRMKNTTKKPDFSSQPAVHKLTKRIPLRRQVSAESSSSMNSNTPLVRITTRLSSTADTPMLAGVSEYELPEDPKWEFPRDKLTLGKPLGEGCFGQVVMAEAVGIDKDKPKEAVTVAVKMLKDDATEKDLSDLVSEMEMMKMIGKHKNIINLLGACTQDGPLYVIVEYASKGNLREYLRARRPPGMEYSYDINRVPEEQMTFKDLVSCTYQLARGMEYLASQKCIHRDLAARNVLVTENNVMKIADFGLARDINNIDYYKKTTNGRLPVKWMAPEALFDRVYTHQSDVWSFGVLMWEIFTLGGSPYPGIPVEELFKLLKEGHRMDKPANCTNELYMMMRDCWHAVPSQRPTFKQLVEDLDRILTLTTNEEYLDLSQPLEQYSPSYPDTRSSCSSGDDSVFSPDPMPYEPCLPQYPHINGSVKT

B1: BGAh9239 (antibody, human IgG1, kappa, V domains shown)
VH: QVQLVQSGAEVKKPGSSVKVSCKASGYTFSIYWLNWVRQAPGQGLEWMGQIYPENADTNYSGKFKGRVTITADKSTSTAYMELSSLRSEDTAVYFCARGGFDYWGQGTLVTVSS
VL: DIQMTQSPSSLSASVGDRVTITCRASENIYSNLAWYQQKPGKAPKLLIYTATNLAEGVPSRFSGSGSGTDFTLTISSLQPEDFATYYCQHFYGILYTFGQGTRLEIKR
notes: also called humanized antibody developed from BGAm1823
For B1, in the assay with cyno FGFR2b on cells [1], the EC50 came out at 7.93 nM and the “Emax (MFI)” value was determined as 6.88e+06 MFI. In assay [2], the Kd amounted to 34 nM, the koff was determined as 0.00272 s⁻¹ and the kon is 79900 M⁻¹ s⁻¹. Also, in assay [3], the EC50 was 0.0442 nM and the “Emax (A450)” value stood at 2.93 A450. For the same molecule, the EC50 with cyno FGFR2b on cells [4] was 1.55 nM.

B2: BGAm1823 (antibody, V domains shown)
VH: EVQLQQSGAELVKPGASVKISCKASGYAFSIYWMNWVKQRPGKGLEWIGQIYPENGDTNYNGKFKGKATLTADKSSSTAYMHLSSLTSEDSAVYFCARGGFDYWGQGTTLTVSS
VL: NIVMTQSPASLSASVGETVTITCRASENIYSNLAWYQQKQGKSPQLLVYTATNLADGVPSRFSGSGSGTQFSLKINSLQPEDFGSYYCQHFYGILYTFGSGTRLEIK
notes: assays detect or capture it with anti-human IgG; also called murine parental antibody of BGAh9239
Consider B2, for which, in the assay with cyno FGFR2b on cells [1], a half-maximal effect (EC50) was put at 6.27 nM and the “Emax (MFI)” value worked out at 7.36e+06 MFI. In assay [2], the dissociation constant (Kd) came to 24.6 nM, the koff came out at 0.0018 s⁻¹ and the kon is 73500 M⁻¹ s⁻¹. In assay [3], the EC50 turned out to be 0.0551 nM and the “Emax (A450)” value was determined as 3 A450.

B3: BGAm1371 (antibody, V domains shown)
VH: QVQLKQSGAELVKPGASVKLSCTASGFNIKDTYIHWVKQRPEQGLEWIGRIDPANGNTMFASEFQGKATITAYTSSNTAYMQLSSLTSGDTAVYYCARSKIHYDYDEGFAYWGQGTLVTVSS
VL: NIVLTQSPPSLAVSLGQRATVSCRASESVDDYGYSFLHWYQQKPGQPPKLLIYRASNLESGIPARFSGSGSRTDFTLTINPVETDDVATYYCQQSNQNPRTFGGGTKLEIK
notes: assays detect or capture it with anti-human IgG; also called parental mouse clone; murine parental antibody of BGAh9179
Turning to B3, in the assay with cyno FGFR2b on cells [1], a half-maximal effect (EC50) was put at 4.73 nM and the “Emax (MFI)” value was 6.19e+06 MFI. For the same molecule, in assay [2], the Kd came to 15.7 nM, the koff was 0.00125 s⁻¹ and the kon was determined as 79700 M⁻¹ s⁻¹. For the same molecule, in assay [3], the EC50 was found to be 0.0245 nM and the “Emax (A450)” value was determined as 3.02 A450. The same molecule showed an EC50 in the assay with cyno FGFR2b on cells [4] of 5.02 nM.

B4: BGAh9179 (antibody, human IgG1, kappa, V domains shown)
VH: QVQLVQSGAEVKKPGASVKVSCKASGYTITDTYIHWVRQAPGQGLEWMGRIDPAEGNTMFASEFQGRVTMTADTSTSTVYMELSSLRSEDTAVYYCARSKIHYDYDEGFAYWGQGTLVTVSS
VL: DIVLTQSPDSLAVSLGERATINCRASESVDDYGYSFLHWYQQKPGQPPKLLIYRASNLESGVPDRFSGSGSGTDFTLTISSLQAEDVAVYYCQQSNQNPRTFGGGTKVEIKR
notes: also called BGA9179; humanized antibody developed from BGAm1371
For B4, in the assay with cyno FGFR2b on cells [1], a half-maximal response (EC50) required 8.45 nM and the “Emax (MFI)” value was 6.25e+06 MFI. Moreover, in assay [2], the Kd was 20.6 nM, the koff is 0.00172 s⁻¹ and the association rate constant (kon) amounted to 83700 M⁻¹ s⁻¹. In assay [3], the EC50 is 0.0469 nM and the “Emax (A450)” value amounted to 2.95 A450.

B5: BGA1421 (antibody, human IgG1, kappa, V domains shown)
VH: QVQLVQSGAEVKKPGSSVKVSCKASGYIFTTYNVHWVRQAPGQGLEWIGSIYPDNGDTSYNQNFKGRATITADKSTSTAYMELSSLRSEDTAVYYCARGDFAYWGQGTLVTVSS
VL: DIQMTQSPSSLSASVGDRVTITCKASQGVSNDVAWYQQKPGKAPKLLIYSASYRYTGVPSRFSGSGSGTDFTFTISSLQPEDIATYYCQQHSTTPYTFGQGTKLEIKR
notes: also called bemarituzumab; comparator antibody alone (un-conjugated)
Consider B5, for which the EC50 in the assay with cyno FGFR2b on cells [4] was 0.49 nM.

B6: BGA2354 (antibody, human IgG1, lambda, V domains shown)
VH: EVQLLESGGGLVQPGGSLRLSCAASGFTFRTSGMHWVRQAPGKGLEWVAVISYDGSNKYYADSVKGRFTISRDNSKNTLYLQMNSLRAEDTAVYYCARESPGYDFEYWGQGTLVTVSS
VL: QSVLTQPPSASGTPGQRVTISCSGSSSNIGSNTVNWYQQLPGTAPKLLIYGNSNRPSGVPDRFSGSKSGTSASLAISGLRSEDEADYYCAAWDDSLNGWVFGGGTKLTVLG
notes: also called M047 (Bayer; BAY1895344)
B6: a half-maximal response with cyno FGFR2b on cells [4] (EC50) required 0.34 nM.

The values are drawn from US20250222125A1 (BEIGENE, published 2025).
